From PMC6297355, “Myopathy associated BAG3 mutations lead to protein aggregation by stalling Hsp70 networks” (Nature Communications, 2018)

B1: BAG3^P209L (recombinant) (natural protein)
chain: not shown
notes: BAG3, human, disease mutation P209L in the second IPV motif; Forms soluble higher order oligomers by SEC-MALS; source: E. coli BL21(DE3), purified (Ni-NTA, TEV cleavage, MonoQ)
B2: BAG3^P209I (recombinant) (natural protein)
chain: not shown
notes: BAG3, human, P209I; source: E. coli BL21(DE3), purified (Ni-NTA, TEV cleavage, MonoQ)
B3: BAG3^P209W (recombinant) (natural protein)
chain: not shown
notes: BAG3, human, P209W; source: E. coli BL21(DE3), purified (Ni-NTA, TEV cleavage, MonoQ)

Target: the molecule itself
Test: SEC-MALS; 30 µM BAG3 solutions separated on Shodex 804, in-line DAWN HELEOS and Optilab rEX detectors

Binding result, binds:
B1, B2, B3
